Data published in patent US20060040277A1 (published 2006).

Biological target: T1, GST-ATIPmouse-short fusion protein (from pGEX-4T1-GST-ATIPmouse-short), on glutathione-agarose beads (mouse, UniProt Q5HZI1 937-1053)
T1 construct: also called GA-GST-ATIPmouse-short; GST-ATIPc; not shown: glutathione S-transferase (GST) encoded by pGEX-4T-1 (Pharmacia)
T1 sequence: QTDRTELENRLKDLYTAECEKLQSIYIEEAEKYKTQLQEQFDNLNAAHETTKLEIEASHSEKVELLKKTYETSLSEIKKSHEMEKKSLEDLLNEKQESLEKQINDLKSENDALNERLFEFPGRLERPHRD
Assay: GST pull-down, SDS-PAGE and immunoblot with anti-MBP

B1: MBP-AT1: fusion of Maltose Binding Protein and the C-terminal end of the human AT1 receptor (Leu 297-Glu 359) (receptor, UniProt P30556 297-359, looked up, not shown: large carriers)
chain: LNPLFYGFLGKKFKRYFLQLLKYIPPKAKSHSNLSTKMSTLSYRPSDNVSSSTKKPAPCFEVE
notes: range 297-359
  binding result: no binding
